From publication PMC1257591, “In Vitro Inhibition of Human Hepatic and cDNA-Expressed Sulfotransferase Activity with 3-Hydroxybenzo[a]pyrene by Polychlorobiphenylols” (Environmental Health Perspectives, 2005)

Test system: T1, Oc1ccc2ccc3c4ccccc4cc4ccc1c2c43
T1 construct: made in house; host or cells: Escherichia coli
Test: Kinetics of 3-OH-BaP sulfonation by partially purified cDNA-expressed SULT1B1
Type: biochemical, human
Conditions: other: apparent, 3-OH-BaP as substrate
Excerpt: The expression of human SULT1A1*1, SULT1A3, SULT1B1, and SULT1E1 in Escherichia coli has been described previously ([Dajani et al. 1998]; [Wang et al. 1998]). We grew E. coli cells containing the respective sulfotransferase genes as described previously ([Falany et al. 1990], [1994]), and prepared 100,000g supernatant fractions for use in inhibition studies and for partial purification of the SULT enzymes. We purchased expressed SULT1A1*2 cytosolic extract from PanVera (Madison, WI) and used it as supplied.
The 100,000g supernatant fractions of SULT1A1*1, SULT1A3, SULT1B1, and SULT1E1 were partially purified by chromatographic methods ([Falany et al. 1990], [1994]). After the last step, a 3′-phosphoadenosine 5′-phosphate (PAP)-agarose affinity column, we dialyzed the fractions eluted with PAP with three changes of buffer to remove PAP before the assay of SULT activity with 3-OH-BaP as substrate. We analyzed active fractions by SDS-PAGE ([Laemmli 1970]) to assess the purity of each SULT enzyme. We stained the gels with Coomassie R-250 reagent and determined the percentage of protein present as each respective SULT enzyme by scanning densitometry.
We determined SULT activity with 3-OH-BaP as substrate by a fluorimetric assay of BaP-3-SO4 product formation, as described previously ([Wang et al. 2004]). […] Duplicate tubes were prepared for each incubation condition. We examined the kinetics of sulfonation in three liver cytosol fractions by systematically varying the concentration of 3-OH-BaP or PAPS. When the variable substrate was 3-OH-BaP, we used 12 concentrations in the range from 0.035 to 2.00 μM, and the concentration of PAPS was kept constant at 10 μM. […]
We determined the kinetic parameters for 3-OH-BaP sulfonation by partially purified preparations of the cDNA-expressed SULT isozymes under incubation conditions similar to those used for liver cytosol. […]
We calculated the enzyme kinetic parameters from studies with variable concentrations of 3-OH-BaP using nonlinear regression analysis and GraphPad 4.0 software (GraphPad Software, San Diego, CA). […]

Q: With SULT1B1 (Homo sapiens) as the substance, how does the Km read?
A: 2.00 µM

Q: And the Vmax?
A: 0.0097 µmol/min/mg

Q: And the Vmax/Km?
A: 4900 µL/min/mg
